Data published in paper PMC11081419, “Structural basis of chemokine recognition by the class A3 tick evasin EVA‐ACA1001” (Protein Science : A Publication of the Protein Society, 2024).

B1: EVA‐ACA1001 (untagged, for crystallization and cell assays) (natural protein)
chain: ENGEGTTQPDYDNSTDYYNYEDFKCTCPAPHLNNTNGTVMKPIGCYYTCNVTRCTAPDTYPCYNLTEHQAKNLTTSPTTLCAVGNCDHGICVPNGTKELCFKAPNLEE
B2: CCL16 (ligand, human, UniProt O15467 24-120, looked up)
chain: QPKVPEWVNTPSTCCLKYYEKVLPRRLVVGYRKALNCHLPAIIFVTKRNREVCTNPNDDWVQEYIKDPNLPLLPTRNLSTVKIITAKNGQPQLLNSQ
notes: CCL16, human CC chemokine; The E. coli preparation is described for the crystal; also called human chemokine CCL16; not shown: His6, N-terminal, cleaved; SUMO, N-terminal, cleaved
B3: CCL7 (ligand)
chain: not shown
notes: CCL7, human CC chemokine
B4: CCL18 (ligand, human, UniProt P55774 21-89, looked up)
chain: AQVGTNKELCCLVYTSWQIPQKFIVDYSETSPQCPKPGVILLTKRGRQICADPNKKWVQKYISDLKLNA
notes: CCL18, human CC chemokine
B5: CCL5 (ligand, human, UniProt P13501 24-91, looked up)
chain: SPYSSDTTPCCFAYIARPLPRAHIKEYFYTSGKCSNPAVVFVTRKNRQVCANPEKKWVREYINSLEMS
notes: CCL5, human CC chemokine
B6: CCL22 (ligand, human, UniProt O00626 25-93, looked up)
chain: GPYGANMEDSVCCRDYVRYRLPLRVVKHFYWTSDSCPRPGVVLLTFRDKEICADPRVPWVKMILNKLSQ
notes: CCL22, human CC chemokine
B7: CCL8 (ligand, human, UniProt P80075 24-99, looked up)
chain: QPDSVSIPITCCFNVINRKIPIQRLESYTRITNIQCPKEAVIFKTKRGKEVCADPKERWVRDSMKHLDQIFQNLKP
notes: CCL8, human CC chemokine
B8: CCL21 (ligand, human, UniProt O00585 24-134, looked up)
chain: SDGGAQDCCLKYSQRKIPAKVVRSYRKQEPSLGCSIPAILFLPRKRSQAELCADPKELWVQQLMQHLDKTPSPQKPAQGCRKDRGASKTGKKGKGSKGCKRTERSQTPKGP
notes: CCL21, human CC chemokine
B9: CCL17 (ligand, human, UniProt Q92583 24-94, looked up)
chain: ARGTNVGRECCLEYFKGAIPLRKLKTWYQTSEDCSRDAIVFVTVQGRAICSDPNNKRVKNAVKYLQSLERS
notes: CCL17, human CC chemokine
B10: CCL3 (ligand, human, UniProt P10147 24-92, looked up)
chain: SLAADTPTACCFSYTSRQIPQNFIADYFETSSQCSKPGVIFLTKRSRQVCADPSEEWVQKYVSDLELSA
notes: CCL3, human CC chemokine
B11: CCL23 (ligand)
chain: RVTKDAETEFMMSKLPLENPVLLDRFHATSADCCISYTPRSIPCSLLESYFETNSECSKPGVIFLTKKGRRFCANPSDKQVQVCMRMLKLDTRIKTRKN
B12: CCL13 (ligand)
chain: not shown
notes: CCL13, human CC chemokine
B13: CCL24 (ligand, human, UniProt O00175 27-119, looked up)
chain: VVIPSPCCMFFVSKRIPENRVVSYQLSSRSTCLKAGVIFTTKKGQQFCGDPKQEWVQRYMKNLDAKQKKASPRARAVAVKGPVQRYPGNQTTC
notes: CCL24, human CC chemokine
B14: CCL26 (ligand, human, UniProt Q9Y258 24-94, looked up)
chain: TRGSDISKTCCFQYSHKPLPWTWVRSYEFTSNSCSQRAVIFTTKRGKKVCTHPRKKWVQKYISLLKTPKQL
notes: CCL26, human CC chemokine
B15: CCL1 (ligand, human, UniProt P22362 24-96, looked up)
chain: KSMQVPFSRCCFSFAEQEIPLRAILCYRNTSSICSNEGLIFKLKRGKEACALDTVGWVQRHRKMLRHCPSKRK
notes: CCL1, human CC chemokine
B16: CCL19 (ligand, human, UniProt Q99731 22-98, looked up)
chain: GTNDAEDCCLSVTQKPIPGYIVRNFHYLLIKDGCRVPAVVFTTLRGRQLCAPPDQPWVERIIQRLQRTSAKMKRRSS
notes: CCL19, human CC chemokine
B17: CCL15 (ligand)
chain: QFTNDAETELMMSKLPLENPVVLNSFHFAADCCTSYISQSIPCSLMKSYFETSSECSKPGVIFLTKKGRQVCAKPSGPGVQDCMKKLKPYSI
B18: CCL4 (ligand, human, UniProt P13236 24-92, looked up)
chain: APMGSDPPTACCFSYTARKLPRNFVVDYYETSSLCSQPAVVFQTKRSKQVCADPSESWVQEYVYDLELN
notes: CCL4, human CC chemokine
B19: CCL27 (ligand, human, UniProt Q9Y4X3 25-112, looked up)
chain: FLLPPSTACCTQLYRKPLSDKLLRKVIQVELQEADGDCHLQAFVLHLAQRSICIHPQNPSLSQWFEHQERKLHGTLPKLNFGMLRKMG
notes: CCL27, human CC chemokine
B20: CCL11 (ligand)
chain: not shown
notes: CCL11, human CC chemokine
B21: EVA‐ACA1001, Avi-tagged and biotinylated (SPR construct) (natural protein)
chain: B1 chain
modifications: biotin on the AVI tag (BirA ligase)
notes: EVA-ACA1001 (Evasin P991), class A3 evasin of Amblyomma cajennense; mass of the untagged protein 11,920 Da (calculated 11,921 Da with five disulfides); also called Evasin P991; full‐length EVA‐ACA1001; not shown: His6, N-terminal, cleaved; SUMO, N-terminal, cleaved

Each binder was assayed against B7 (assay: cell-based or functional assay). Conditions: not given.

For B1, the “IC50 of EVA-ACA1001 for inhibition of CCL8-stimulated activation of CCR5 (cAMP assay); blocks CCL8 with CCR5” value was about 189 nM.

Biological target: B7
Test: cell-based or functional assay
Conditions: not given
Remark: another data set of the same source

B1 was tested, and the “IC50 of EVA-ACA1001 for inhibition of CCL8 (100 nM)-stimulated activation of CCR5 (inhibition of forskolin-induced cAMP, CAMYEL BRET biosensor, Flp-In-CHO cells); blocks CCL8 with CCR5” value was 188 nM.

With B1 the “pIC50 of EVA-ACA1001 for inhibition of CCL8 (100 nM)-stimulated activation of CCR5 (inhibition of forskolin-induced cAMP, CAMYEL BRET biosensor, Flp-In-CHO cells); blocks CCL8 with CCR5” value was 6.51 -log(IC50, M).

Each binder was assayed against B10 (assay: cell-based or functional assay). Conditions: not given.

B1 was tested, and the “IC50 of EVA-ACA1001 for inhibition of CCL3 (60 nM)-stimulated activation of CCR5 (inhibition of forskolin-induced cAMP, CAMYEL BRET biosensor, Flp-In-CHO cells); blocks CCL3 with CCR5” value was 94 nM.

With B1 the “pIC50 of EVA-ACA1001 for inhibition of CCL3 (60 nM)-stimulated activation of CCR5 (inhibition of forskolin-induced cAMP, CAMYEL BRET biosensor, Flp-In-CHO cells); blocks CCL3 with CCR5” value was 7.02 -log(IC50, M).

The binders below were run against B18 (assay: cell-based or functional assay). Conditions: not given.

In the case of B1, the “IC50 of EVA-ACA1001 for inhibition of CCL4 (80 nM)-stimulated activation of CCR5 (inhibition of forskolin-induced cAMP, CAMYEL BRET biosensor, Flp-In-CHO cells); blocks CCL4 with CCR5” value is reported as 84 nM.

B1 was tested, and the “pIC50 of EVA-ACA1001 for inhibition of CCL4 (80 nM)-stimulated activation of CCR5 (inhibition of forskolin-induced cAMP, CAMYEL BRET biosensor, Flp-In-CHO cells); blocks CCL4 with CCR5” value was 7.07 -log(IC50, M).

What follows are binders tested against B1 (assay: crystal structure; EVA-ACA1001 and CCL16 mixed 1:1.2, complex purified on Superdex 75 in 10 mM HEPES pH 7.5, 150 mM NaCl; crystals from 0.1 M HEPES pH 7.0, 0.5% v/v Jeff ED-2001, 1.1 M sodium malonate; two complexes per asymmetric unit). Conditions: both partners purified.

For B2, the “stoichiometry N” value was 1.

Each binder was assayed against B21 (assay: SPR; screen at a single chemokine concentration: biotinylated Avi-tagged evasin immobilised on a streptavidin-coated CAPture chip (80 response units); 500 nM chemokine flowed for 240 s at 30 uL/min, 600 s dissociation; 25°C; Biacore T100; 10 mM HEPES, 500 mM NaCl, 0.002% Tween 20, 3 mM EDTA, 1 mg/mL carboxymethyl dextran, pH 7.5). Conditions: both partners purified.

B3: binds.
B4: binds.

Each binder was assayed against B21 (assay: SPR; affinity determination: biotinylated Avi-tagged evasin immobilised on a streptavidin-coated CAPture chip; five two-fold increasing chemokine concentrations (31.25-500 nM), 240 s at 30 uL/min, 600 s dissociation; 1:1 binding model; 25°C; 10 mM HEPES, 500 mM NaCl, 0.002% Tween 20, 3 mM EDTA, 1 mg/mL carboxymethyl dextran, pH 7.5; three independent experiments (Table 1 caption: multiple-cycle kinetics)). Conditions: both partners purified.

In order of falling Kd:
1. B17  107 nM
2. B19  84.8 nM
3. B15  21.1 nM
4. B13  8.9 nM
5. B7  4.76 nM
6. B14  1.68 nM
7. B16  1.31 nM
8. B6  1.29 nM
9. B18  1.18 nM
10. B11  1.17 nM
11. B10  1.08 nM
12. B9  1.01 nM
13. B2  0.54 nM
14. B12  0.39 nM
15. B20  0.38 nM
16. B5  0.27 nM

In order of rising pKd:
1. B17  7.02 -log(Kd, M)
2. B19  7.07 -log(Kd, M)
3. B15  7.71 -log(Kd, M)
4. B8  8.19 -log(Kd, M)
5. B13  8.22 -log(Kd, M)
6. B7  8.34 -log(Kd, M)
7. B14  8.77 -log(Kd, M)
8. B6  8.9 -log(Kd, M)
9. B16  8.9 -log(Kd, M)
10. B11  8.93 -log(Kd, M)
11. B18  8.93 -log(Kd, M)
12. B9  8.99 -log(Kd, M)
13. B10  8.99 -log(Kd, M)
14. B2  9.34 -log(Kd, M)
15. B12  9.41 -log(Kd, M)
16. B20  9.49 -log(Kd, M)
17. B5  9.55 -log(Kd, M)

These binders were tested against B8 in the same assay as above. Conditions: both partners purified.

B21 was tested, and the Kd was 6.5 nM.
